Results on six molecules are retold here after publication PMC10104521 (Proceedings of the National Academy of Sciences of the …, 2023).

For data set [1], the target named is T1, farnesylated GBP1 (guanylate-binding protein 1) (human, UniProt P32455 1-592, C-terminal farnesyl moiety).
T1 sequence: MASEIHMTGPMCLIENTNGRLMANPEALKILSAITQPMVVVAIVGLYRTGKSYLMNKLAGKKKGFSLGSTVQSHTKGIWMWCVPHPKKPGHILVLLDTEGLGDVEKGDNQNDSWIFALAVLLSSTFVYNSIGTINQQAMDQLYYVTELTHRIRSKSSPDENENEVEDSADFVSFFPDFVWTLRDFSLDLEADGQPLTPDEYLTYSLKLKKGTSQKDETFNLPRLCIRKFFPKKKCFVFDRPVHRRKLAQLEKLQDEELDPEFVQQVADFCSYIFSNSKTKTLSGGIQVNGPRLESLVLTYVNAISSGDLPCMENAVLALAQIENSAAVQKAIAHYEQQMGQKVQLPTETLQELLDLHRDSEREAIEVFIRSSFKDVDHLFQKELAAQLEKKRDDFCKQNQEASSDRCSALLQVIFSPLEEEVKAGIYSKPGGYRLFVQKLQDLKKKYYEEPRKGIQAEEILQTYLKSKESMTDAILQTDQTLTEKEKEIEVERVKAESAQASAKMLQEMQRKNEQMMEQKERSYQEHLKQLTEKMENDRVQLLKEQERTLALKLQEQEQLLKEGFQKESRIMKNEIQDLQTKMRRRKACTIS
In words: UV-absorbance-based light scattering.

Data set [2] concerns the molecule itself. In words: dynamic light scattering.
For data set [3], the target named is T2, geranylgeranylated GBP5 (guanylate-binding protein 5) (human), Q96PP8.
T2 chain: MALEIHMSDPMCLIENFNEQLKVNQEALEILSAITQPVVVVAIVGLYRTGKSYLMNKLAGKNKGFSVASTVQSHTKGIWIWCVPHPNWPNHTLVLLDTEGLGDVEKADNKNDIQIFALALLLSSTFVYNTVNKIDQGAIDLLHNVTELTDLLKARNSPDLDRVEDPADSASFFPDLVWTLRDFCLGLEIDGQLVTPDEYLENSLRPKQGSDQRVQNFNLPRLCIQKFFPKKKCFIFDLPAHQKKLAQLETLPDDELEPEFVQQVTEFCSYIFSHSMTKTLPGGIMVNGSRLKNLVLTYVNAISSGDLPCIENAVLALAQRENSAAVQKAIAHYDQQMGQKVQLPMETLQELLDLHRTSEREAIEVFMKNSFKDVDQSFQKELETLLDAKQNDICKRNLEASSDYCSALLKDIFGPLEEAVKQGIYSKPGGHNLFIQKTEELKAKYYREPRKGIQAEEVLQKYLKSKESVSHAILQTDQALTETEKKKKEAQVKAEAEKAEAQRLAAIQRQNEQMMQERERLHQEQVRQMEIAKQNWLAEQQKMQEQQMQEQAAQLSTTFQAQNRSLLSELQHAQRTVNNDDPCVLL
Kind of data set: dynamic light scattering. The note with it: remark: other sources report otherwise.

Data set [4] has as its target T3, nongeranylgeranylated GBP5 (human), Q96PP8.
T3 chain: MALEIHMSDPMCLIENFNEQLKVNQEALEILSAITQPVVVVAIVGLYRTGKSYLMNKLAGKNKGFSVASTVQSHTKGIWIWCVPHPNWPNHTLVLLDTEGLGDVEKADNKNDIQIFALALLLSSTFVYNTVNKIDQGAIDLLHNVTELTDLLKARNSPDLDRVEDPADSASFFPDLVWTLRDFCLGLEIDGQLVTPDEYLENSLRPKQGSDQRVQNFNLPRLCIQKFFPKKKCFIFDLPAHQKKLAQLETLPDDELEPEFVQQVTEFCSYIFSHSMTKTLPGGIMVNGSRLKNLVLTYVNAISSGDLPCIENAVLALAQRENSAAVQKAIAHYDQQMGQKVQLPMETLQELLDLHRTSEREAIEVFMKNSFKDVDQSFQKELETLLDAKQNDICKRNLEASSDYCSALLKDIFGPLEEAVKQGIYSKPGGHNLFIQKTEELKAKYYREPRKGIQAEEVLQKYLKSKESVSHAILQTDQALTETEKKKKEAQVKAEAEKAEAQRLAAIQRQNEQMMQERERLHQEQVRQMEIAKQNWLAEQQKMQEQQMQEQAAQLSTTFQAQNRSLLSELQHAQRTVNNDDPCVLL
In words: dynamic light scattering. The conditions noted are these: remark: other sources report otherwise.

Data set [5] concerns the target T4, nonfarnesylated GBP1 (human), P32455.
T4 chain: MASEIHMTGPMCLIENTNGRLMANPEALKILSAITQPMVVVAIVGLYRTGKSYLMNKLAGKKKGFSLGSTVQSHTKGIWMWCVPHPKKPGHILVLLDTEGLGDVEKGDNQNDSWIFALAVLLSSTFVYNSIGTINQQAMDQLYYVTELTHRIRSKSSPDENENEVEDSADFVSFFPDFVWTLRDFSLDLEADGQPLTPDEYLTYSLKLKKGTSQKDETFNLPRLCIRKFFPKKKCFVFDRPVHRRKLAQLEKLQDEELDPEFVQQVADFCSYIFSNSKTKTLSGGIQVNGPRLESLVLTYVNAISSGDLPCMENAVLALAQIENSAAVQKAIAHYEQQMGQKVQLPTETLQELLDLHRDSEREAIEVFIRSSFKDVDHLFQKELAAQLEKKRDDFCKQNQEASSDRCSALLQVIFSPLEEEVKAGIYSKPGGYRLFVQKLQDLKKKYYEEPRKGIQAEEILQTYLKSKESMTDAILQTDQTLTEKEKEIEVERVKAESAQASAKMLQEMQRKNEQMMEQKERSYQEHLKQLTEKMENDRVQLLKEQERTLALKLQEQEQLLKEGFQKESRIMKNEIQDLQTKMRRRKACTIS
In words: dynamic light scattering. The conditions noted are these: remark: other sources report otherwise.

B1: geranylgeranylated GBP2 (guanylate-binding protein 2) (natural protein, human, UniProt P32456 1-591, looked up)
chain: MAPEINLPGPMSLIDNTKGQLVVNPEALKILSAITQPVVVVAIVGLYRTGKSYLMNKLAGKKNGFSLGSTVKSHTKGIWMWCVPHPKKPEHTLVLLDTEGLGDIEKGDNENDSWIFALAILLSSTFVYNSMGTINQQAMDQLHYVTELTDRIKANSSPGNNSVDDSADFVSFFPAFVWTLRDFTLELEVDGEPITADDYLELSLKLRKGTDKKSKSFNDPRLCIRKFFPKRKCFVFDWPAPKKYLAHLEQLKEEELNPDFIEQVAEFCSYILSHSNVKTLSGGIPVNGPRLESLVLTYVNAISSGDLPCMENAVLALAQIENSAAVEKAIAHYEQQMGQKVQLPTETLQELLDLHRDSEREAIEVFMKNSFKDVDQMFQRKLGAQLEARRDDFCKQNSKASSDCCMALLQDIFGPLEEDVKQGTFSKPGGYRLFTQKLQELKNKYYQVPRKGIQAKEVLKKYLESKEDVADALLQTDQSLSEKEKAIEVERIKAESAEAAKKMLEEIQKKNEEMMEQKEKSYQEHVKQLTEKMERDRAQLMAEQEKTLALKLQEQERLLKEGFENESKRLQKDIWDIQMRSKSLEPICNIL
modifications: C-terminal geranylgeranyl moiety
B1: the binding result in data set [1] and in data set [2] was “binds” throughout.

B2: nongeranylgeranylated GBP2 (natural protein, human, UniProt P32456 1-591, looked up)
chain: MAPEINLPGPMSLIDNTKGQLVVNPEALKILSAITQPVVVVAIVGLYRTGKSYLMNKLAGKKNGFSLGSTVKSHTKGIWMWCVPHPKKPEHTLVLLDTEGLGDIEKGDNENDSWIFALAILLSSTFVYNSMGTINQQAMDQLHYVTELTDRIKANSSPGNNSVDDSADFVSFFPAFVWTLRDFTLELEVDGEPITADDYLELSLKLRKGTDKKSKSFNDPRLCIRKFFPKRKCFVFDWPAPKKYLAHLEQLKEEELNPDFIEQVAEFCSYILSHSNVKTLSGGIPVNGPRLESLVLTYVNAISSGDLPCMENAVLALAQIENSAAVEKAIAHYEQQMGQKVQLPTETLQELLDLHRDSEREAIEVFMKNSFKDVDQMFQRKLGAQLEARRDDFCKQNSKASSDCCMALLQDIFGPLEEDVKQGTFSKPGGYRLFTQKLQELKNKYYQVPRKGIQAKEVLKKYLESKEDVADALLQTDQSLSEKEKAIEVERIKAESAEAAKKMLEEIQKKNEEMMEQKEKSYQEHVKQLTEKMERDRAQLMAEQEKTLALKLQEQERLLKEGFENESKRLQKDIWDIQMRSKSLEPICNIL
For B2, the “stoichiometry N” value in data set [2] was 2.

B3: geranylgeranylated GBP5 (guanylate-binding protein 5), Q96PP8 1-586 (natural protein)
chain: MALEIHMSDPMCLIENFNEQLKVNQEALEILSAITQPVVVVAIVGLYRTGKSYLMNKLAGKNKGFSVASTVQSHTKGIWIWCVPHPNWPNHTLVLLDTEGLGDVEKADNKNDIQIFALALLLSSTFVYNTVNKIDQGAIDLLHNVTELTDLLKARNSPDLDRVEDPADSASFFPDLVWTLRDFCLGLEIDGQLVTPDEYLENSLRPKQGSDQRVQNFNLPRLCIQKFFPKKKCFIFDLPAHQKKLAQLETLPDDELEPEFVQQVTEFCSYIFSHSMTKTLPGGIMVNGSRLKNLVLTYVNAISSGDLPCIENAVLALAQRENSAAVQKAIAHYDQQMGQKVQLPMETLQELLDLHRTSEREAIEVFMKNSFKDVDQSFQKELETLLDAKQNDICKRNLEASSDYCSALLKDIFGPLEEAVKQGIYSKPGGHNLFIQKTEELKAKYYREPRKGIQAEEVLQKYLKSKESVSHAILQTDQALTETEKKKKEAQVKAEAEKAEAQRLAAIQRQNEQMMQERERLHQEQVRQMEIAKQNWLAEQQKMQEQQMQEQAAQLSTTFQAQNRSLLSELQHAQRTVNNDDPCVLL
modifications: here or on the partner: C-terminal geranylgeranyl moiety; C-terminal geranylgeranyl moiety
Consider B3, for which the stoichiometry N in data set [3] stood at 2.

B4: nongeranylgeranylated GBP5, Q96PP8 1-586 (natural protein)
chain: MALEIHMSDPMCLIENFNEQLKVNQEALEILSAITQPVVVVAIVGLYRTGKSYLMNKLAGKNKGFSVASTVQSHTKGIWIWCVPHPNWPNHTLVLLDTEGLGDVEKADNKNDIQIFALALLLSSTFVYNTVNKIDQGAIDLLHNVTELTDLLKARNSPDLDRVEDPADSASFFPDLVWTLRDFCLGLEIDGQLVTPDEYLENSLRPKQGSDQRVQNFNLPRLCIQKFFPKKKCFIFDLPAHQKKLAQLETLPDDELEPEFVQQVTEFCSYIFSHSMTKTLPGGIMVNGSRLKNLVLTYVNAISSGDLPCIENAVLALAQRENSAAVQKAIAHYDQQMGQKVQLPMETLQELLDLHRTSEREAIEVFMKNSFKDVDQSFQKELETLLDAKQNDICKRNLEASSDYCSALLKDIFGPLEEAVKQGIYSKPGGHNLFIQKTEELKAKYYREPRKGIQAEEVLQKYLKSKESVSHAILQTDQALTETEKKKKEAQVKAEAEKAEAQRLAAIQRQNEQMMQERERLHQEQVRQMEIAKQNWLAEQQKMQEQQMQEQAAQLSTTFQAQNRSLLSELQHAQRTVNNDDPCVLL
In turn, B4 yielded a stoichiometry N in data set [4] of 2.

B5: geranylgeranylated GBP5 (guanylate-binding protein 5) (natural protein, human, UniProt Q96PP8 1-586, looked up)
chain: MALEIHMSDPMCLIENFNEQLKVNQEALEILSAITQPVVVVAIVGLYRTGKSYLMNKLAGKNKGFSVASTVQSHTKGIWIWCVPHPNWPNHTLVLLDTEGLGDVEKADNKNDIQIFALALLLSSTFVYNTVNKIDQGAIDLLHNVTELTDLLKARNSPDLDRVEDPADSASFFPDLVWTLRDFCLGLEIDGQLVTPDEYLENSLRPKQGSDQRVQNFNLPRLCIQKFFPKKKCFIFDLPAHQKKLAQLETLPDDELEPEFVQQVTEFCSYIFSHSMTKTLPGGIMVNGSRLKNLVLTYVNAISSGDLPCIENAVLALAQRENSAAVQKAIAHYDQQMGQKVQLPMETLQELLDLHRTSEREAIEVFMKNSFKDVDQSFQKELETLLDAKQNDICKRNLEASSDYCSALLKDIFGPLEEAVKQGIYSKPGGHNLFIQKTEELKAKYYREPRKGIQAEEVLQKYLKSKESVSHAILQTDQALTETEKKKKEAQVKAEAEKAEAQRLAAIQRQNEQMMQERERLHQEQVRQMEIAKQNWLAEQQKMQEQQMQEQAAQLSTTFQAQNRSLLSELQHAQRTVNNDDPCVLL
modifications: C-terminal geranylgeranyl moiety
Regarding B5, the binding result in data set [1] was “binds”.

B6: nonfarnesylated GBP1, P32455 1-592 (natural protein)
chain: MASEIHMTGPMCLIENTNGRLMANPEALKILSAITQPMVVVAIVGLYRTGKSYLMNKLAGKKKGFSLGSTVQSHTKGIWMWCVPHPKKPGHILVLLDTEGLGDVEKGDNQNDSWIFALAVLLSSTFVYNSIGTINQQAMDQLYYVTELTHRIRSKSSPDENENEVEDSADFVSFFPDFVWTLRDFSLDLEADGQPLTPDEYLTYSLKLKKGTSQKDETFNLPRLCIRKFFPKKKCFVFDRPVHRRKLAQLEKLQDEELDPEFVQQVADFCSYIFSNSKTKTLSGGIQVNGPRLESLVLTYVNAISSGDLPCMENAVLALAQIENSAAVQKAIAHYEQQMGQKVQLPTETLQELLDLHRDSEREAIEVFIRSSFKDVDHLFQKELAAQLEKKRDDFCKQNQEASSDRCSALLQVIFSPLEEEVKAGIYSKPGGYRLFVQKLQDLKKKYYEEPRKGIQAEEILQTYLKSKESMTDAILQTDQTLTEKEKEIEVERVKAESAQASAKMLQEMQRKNEQMMEQKERSYQEHLKQLTEKMENDRVQLLKEQERTLALKLQEQEQLLKEGFQKESRIMKNEIQDLQTKMRRRKACTIS
The molecule B6 gave a stoichiometry N in data set [5] of 2.

The term stoichiometry N denotes a count of units in the complex or per binding partner.
